The text below walks through data of patent US12156889B2, “Methods of administering mesenchymal stem cells activated by cytokines for enhancing immunosuppression” (Rutgers, The State University of New Jersey, priority 2012, dated 2024).

This assay relates to MSCs. Briefly: Gene expression in cytokine-treated MSCs (quantitative RT-PCR, Western Blot). The assay is classed as cell-based, mouse. As for the experimental part: FIG. 6. IL-17A greatly enhances inflammatory cytokine-induced iNOS expression in mouse BM-MSCs at both mRNA and protein levels. BM-MSCs were treated with the indicated cytokines. The iNOS gene expression was measured by real-time PCR.
FIGS. 10A, 10B, 10C, 10D and 10E. (FIGS. 10A and 10C). MSCs were cultured with different combinations of inflammatory cytokines IFNγ, TNFα, IL-17A (10 ng/ml) for 12 hr, and then cells were harvested for RNA extraction. The mRNA expression levels of inflammatory molecules iNOS, IL-6, CXCL1 (FIG. 10A) and chemokines CCL2, CCL5, CXCL9, CXCL10 (FIG. 10C) were detected by quantitative RT-PCR. (FIG. 10B). MSCs were cultured with different combinations of inflammatory cytokines IFNγ, TNFα, IL-17A (10 ng/ml) for 24 hr, and the protein level of iNOS was detected by Western Blot. (FIG. 10D). MSCs were supplemented with Sup-CD3 or Sup-CD3 pretreated with antibodies against IL-17A, and cells were collected for RNA extraction after 12 hr. The expression of iNOS, IL-6, CXCL1, CCL2, CCL5, CXCL9 and CXCL10 were measured by quantitative RT-PCR. Sup-CD3: supernatant from splenocytes activated by anti-CD3 and anti-CD28. (FIG. 10E). MSCs were treated with Sup-CD3 or Sup-CD3 pretreated with antibodies against IL-17A, and the protein level of iNOS was assessed by Western Blot after 24 hr. mRNA expression values are means±SEM of three wells from a representative of three independent experiments. Western Blot data is from a representative of three independent experiments.
FIGS. 11A, 11B, 11C and 11D. (FIG. 11A) MSCs with Act1 knockdown or control were treated with IL-17A for different time and the phosphorylation levels of IκBα, ERK, p65, JNK were assessed by Western Blot. (FIG. 11B) MSCs with Act1 knockdown or control were treated with IFNγ and TNFα with or without IL-17A (all cytokines supplemented at 5 ng/ml) the protein levels of iNOS and Act1 were assessed by Western Blot. (FIG. 11C) MSCs (Act1 knockdown or control) were treated with different cytokines 12 hr, and iNOS expression was measured by quantitative RT-PCR. mRNA expression values are means±SEM. (FIG. 11D) MSCs (Act1 knockdown or control) were first treated with IFNγ and TNFα with or without IL-17A (all cytokines supplemented at 5 ng/ml) for 12 hr, and then cocultured with T cell hybridoma A1.1 cells at a ratio of 1:10 for 12 hr. T cell proliferation was measured by 3H-Tdr incorporation, taking the proliferation level of A1.1 alone as 100%.
FIGS. 12A and 12B. (FIG. 12A). WT MSCs or auf1^−/− MSCs were treated with IFNγ and TNFα, or together with IL-17A (all cytokines supplemented at 10 ng/ml) for 12 hr, and iNOS, IL-6 and CXCL1 expression was measured by quantitative RT-PCR. mRNA expression values are means±SEM of three wells from a representative of three independent experiments. (FIG. 12B). WT MSCs were treated with IFNγ and TNFα (10 ng/ml), or together with different concentrations of IL-17A; auf1^−/−-MSCs were treated with IFNγ and TNFα (10 ng/ml), or together with 10 ng/ml of IL-17A. After 24 hr, cells were harvested for detection of iNOS by Western Blot. Western blot is a representative of three independent experiments.
RNA isolation and gene expression assay-Total RNA was isolated with the RNAprep Pure Cell/Bacteria Kit. First-strand cDNA synthesis was performed with a cDNA synthesis kit. The levels of mRNAs were measured by quantitative RT-PCR (7900 HT; Applied Biosystems, Foster City, CA) with SYBR Green Master Mix and normalized to the level of β-actin mRNA. Sequences of forward and reverse primer pairs are as follows:
Western blotting analysis-Cells were washed twice with ice-cold PBS, harvested and lysed in the RIPA buffer (Millipore, Temecular, CA) containing a cocktail of protease inhibitors (Roche, Natley, NJ) and PMSF (Sigma) for 30 min on ice. Lysates were clarified by centrifugation at 16,000 g for 15 minutes. Protein concentration of the supernatant was determined by the Bradford assay (Bio-Rad, Hercules, CA). […]
(In western blotting, separated proteins are transferred to a membrane and probed.)

The mark [1] stands for this setting: together with IFNγ and TNFα, 10 ng/ml, 12 hr.

B1: IL-17A: recombinant mouse interleukin 17A (protein)
chain: AAIIPQSSACPNTEAKDFLQNVKVNLKVFNSLGAKVSSRRPSDYLNRSTSPWTLHRNEDPDRYPSVIWEAQCRHQRCVNAEGKLDHHMNSVLIQQEILVLKREPESCPFTFRVEKMLVGVGCTCVASIVRQAA
Take B1: for the setting “5 ng/ml”, the “IFNγ+TNFα induced iNOS expression in Act1 knockdown MSCs” value is listed as “could not upregulate”. Further, under “addition to IFNγ and TNFα, 10 ng/ml, 12 hr”, the “expression of CCL5, CCL2, CXCL9, CXCL10” value was “unaffected”. Further, the “expression of iNOS at mRNA and protein levels in BM-MSCs” value (in the presence of IFNγ and TNFα) is recorded as “greatly enhanced”. Moreover, under setting [1], the “iNOS, IL-6, and CXCL1 mRNAs in wild-type MSCs” value is on record as “significant increases”; the “increase of iNOS, IL-6, and CXCL1 mRNA abundance in auf1−/− MSCs” value is reported as “less than twofold”. Also, for the setting “with IFNγ+TNFα”, the “IL-17A induction of iNOS expression in MSCs with AUF1 knocked down with siRNA” value is reported as “largely abrogated” and the “iNOS expression in wild type MSCs” value was “strikingly induced”.
